Reference: US20100047928A1 (CANON, published 2010)

Target: T1, Soluble hen egg-white lysozyme proteins (HEL; Seikagaku Corp. code No. 100940) (hen, UniProt P00698 19-147)
T1 construct: Bought protein, soluble; also called HEL proteins; target substances
Test: sandwich on gold/glass slide: immobilised fusion, 500 nM HEL, FITC-labelled anti-HEL polyclonal antibodies, fluorescence microscopy
Description: 200 μl of 500 nM HEL proteins is added dropwise as target substances to the neighborhood of the boundary region between the gold layer and the glass layer of the slide glass completely washed in the step (ii). The slide glass is covered with a cover glass. After reaction at room temperature for 30 minutes, the slide glass is washed with each buffer. Next, 1 ml of 100 nM FITC-labeled HEL polyclonal antibodies was spotted thereonto and incubated in a moisture chamber. Then, the slide glass is washed with each buffer. FITC fluorescence at 520 nm is observed with a fluorescence microscope.

T1 sequence (P00698 19-147): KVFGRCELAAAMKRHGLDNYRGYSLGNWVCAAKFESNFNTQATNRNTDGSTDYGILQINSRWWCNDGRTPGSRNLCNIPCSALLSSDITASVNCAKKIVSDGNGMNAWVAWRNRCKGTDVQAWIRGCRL

binding result: binds
B1: fusion protein of HEL-binding scFv (HyHEL10), Au-binding peptide region and SiO2-binding peptide region (scFv)
scFv: DIVLTQSPATLSVTPGNSVSLSCRASQSIGNNLHWYQQKSHESPRLLIKYASQSISGIPSRFSGSGSGTDFTLSINSVETEDFGMYFCQQSNSWPYTFGGGTKLEITAGGGGSGGGGSGGGGSDIQLQESGPSLVKPSQTLSLTCSVTGDSITSDYWSWIRKFPGNRLEYMGYVSYSGSTYYNPSLKSRISITRDTSKNQYYLDLNSVTTEDTATYYCANWDGDYWGQGTLVTVSAAGGGGSGGGGSGGGGSMHGKTQATSGTIQSMHGKTQATSGTIQSMHGKTQATSGTIQSMHSASGSGGGGSGGGSGGGSEGGGSEGGGSGGGSGSIPMHVHHKHPHVIPMHVHHKHPHV
notes: Secreted from E. coli by the pelB signal of pET-20b(+); In the assays it stood immobilised on a gold/glass substrate; also called target substance capturing body; sc-Fv-HyHEL10 fusion; not shown: His tag used for metal chelate purification (pET-20b(+) vector)
